Data published in the supplement of paper PMC10065799, “High-throughput profiling of sequence recognition by tyrosine kinases and SH2 domains using bacterial peptide display” (eLife, 2023).

Experiments:
AncSZ = test: phosphorylation enrichment, bacterial display (enrichment ratio); higher = better substrate or ligand; peptides without Tyr show the background
EPHB1 = EPHB1 (UniProt P54762); test: as above
EPHB2 = EPHB2 (UniProt P29323); test: as above
FGFR1 = FGFR1 (UniProt P11362); test: as above
Chain of FGFR1 (P11362 whole entry, looked up): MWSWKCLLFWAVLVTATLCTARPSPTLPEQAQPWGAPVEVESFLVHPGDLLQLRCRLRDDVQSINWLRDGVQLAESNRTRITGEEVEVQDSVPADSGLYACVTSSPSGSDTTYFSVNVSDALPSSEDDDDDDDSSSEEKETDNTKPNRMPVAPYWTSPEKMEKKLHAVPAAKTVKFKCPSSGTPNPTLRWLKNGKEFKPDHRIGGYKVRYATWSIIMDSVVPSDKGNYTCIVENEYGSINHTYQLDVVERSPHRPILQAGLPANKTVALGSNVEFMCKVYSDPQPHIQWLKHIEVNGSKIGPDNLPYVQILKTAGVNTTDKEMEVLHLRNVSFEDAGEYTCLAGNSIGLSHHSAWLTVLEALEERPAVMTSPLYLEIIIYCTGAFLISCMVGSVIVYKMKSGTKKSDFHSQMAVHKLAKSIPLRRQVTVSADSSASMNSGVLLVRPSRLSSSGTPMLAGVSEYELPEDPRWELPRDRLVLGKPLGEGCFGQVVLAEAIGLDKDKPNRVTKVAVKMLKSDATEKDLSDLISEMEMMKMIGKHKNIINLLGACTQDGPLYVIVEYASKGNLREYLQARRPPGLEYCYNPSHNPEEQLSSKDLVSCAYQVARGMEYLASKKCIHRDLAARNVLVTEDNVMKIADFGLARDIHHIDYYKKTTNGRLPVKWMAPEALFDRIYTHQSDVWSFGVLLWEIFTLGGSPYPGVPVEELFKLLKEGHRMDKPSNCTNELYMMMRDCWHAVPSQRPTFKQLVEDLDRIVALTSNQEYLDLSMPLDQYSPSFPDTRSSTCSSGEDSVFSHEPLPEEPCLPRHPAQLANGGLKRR

FGFR3 = FGFR3 (UniProt P22607); test: as above
Chain of FGFR3 (P22607 whole entry, looked up): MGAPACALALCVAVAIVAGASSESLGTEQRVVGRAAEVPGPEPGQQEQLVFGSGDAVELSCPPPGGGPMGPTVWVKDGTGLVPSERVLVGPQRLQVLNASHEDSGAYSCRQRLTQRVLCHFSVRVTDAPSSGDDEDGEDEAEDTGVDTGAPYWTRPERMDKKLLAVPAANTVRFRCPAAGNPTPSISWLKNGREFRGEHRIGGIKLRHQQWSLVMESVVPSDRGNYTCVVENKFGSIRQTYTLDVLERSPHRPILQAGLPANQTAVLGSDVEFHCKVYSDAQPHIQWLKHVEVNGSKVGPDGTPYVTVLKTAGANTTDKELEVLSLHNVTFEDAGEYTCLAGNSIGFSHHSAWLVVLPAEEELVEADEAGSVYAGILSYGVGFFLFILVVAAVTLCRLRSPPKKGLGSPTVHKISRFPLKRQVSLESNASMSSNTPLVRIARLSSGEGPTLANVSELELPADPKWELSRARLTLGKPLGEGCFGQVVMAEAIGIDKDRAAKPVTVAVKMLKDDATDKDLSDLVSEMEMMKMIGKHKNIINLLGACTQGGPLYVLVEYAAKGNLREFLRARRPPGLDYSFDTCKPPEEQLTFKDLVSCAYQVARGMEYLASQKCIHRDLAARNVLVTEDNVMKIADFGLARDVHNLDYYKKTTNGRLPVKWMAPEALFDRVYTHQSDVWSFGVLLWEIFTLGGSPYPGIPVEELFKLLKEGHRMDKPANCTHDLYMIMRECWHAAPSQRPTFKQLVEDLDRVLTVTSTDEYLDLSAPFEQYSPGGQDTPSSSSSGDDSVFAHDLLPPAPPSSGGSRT

Fer (mouse) = test: as above
Fes = Fes (UniProt P07332); test: as above
Chain of Fes (P07332 whole entry, looked up): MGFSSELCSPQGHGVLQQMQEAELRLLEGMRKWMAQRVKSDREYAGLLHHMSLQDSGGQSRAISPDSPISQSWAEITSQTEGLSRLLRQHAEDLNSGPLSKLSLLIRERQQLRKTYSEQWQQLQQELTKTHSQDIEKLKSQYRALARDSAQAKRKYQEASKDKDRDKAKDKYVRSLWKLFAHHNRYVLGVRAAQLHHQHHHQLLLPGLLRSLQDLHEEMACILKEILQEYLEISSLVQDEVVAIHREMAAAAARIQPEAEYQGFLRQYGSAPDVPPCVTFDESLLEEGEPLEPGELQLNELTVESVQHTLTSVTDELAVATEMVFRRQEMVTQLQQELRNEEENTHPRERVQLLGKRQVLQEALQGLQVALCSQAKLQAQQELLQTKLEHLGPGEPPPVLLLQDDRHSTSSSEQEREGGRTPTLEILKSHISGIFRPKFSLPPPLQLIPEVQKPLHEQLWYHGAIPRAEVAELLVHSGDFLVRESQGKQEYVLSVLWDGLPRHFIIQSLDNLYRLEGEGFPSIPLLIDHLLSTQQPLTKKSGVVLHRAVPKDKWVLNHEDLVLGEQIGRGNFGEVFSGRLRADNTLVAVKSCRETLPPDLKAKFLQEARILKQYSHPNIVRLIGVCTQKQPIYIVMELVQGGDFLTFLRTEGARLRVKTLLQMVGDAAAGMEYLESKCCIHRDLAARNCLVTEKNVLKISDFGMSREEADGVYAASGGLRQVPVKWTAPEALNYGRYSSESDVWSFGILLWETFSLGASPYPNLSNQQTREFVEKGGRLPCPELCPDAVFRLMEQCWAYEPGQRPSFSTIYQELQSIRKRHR

Fyn = Fyn (UniProt P06241); test: as above
Chain of Fyn (P06241 whole entry, looked up): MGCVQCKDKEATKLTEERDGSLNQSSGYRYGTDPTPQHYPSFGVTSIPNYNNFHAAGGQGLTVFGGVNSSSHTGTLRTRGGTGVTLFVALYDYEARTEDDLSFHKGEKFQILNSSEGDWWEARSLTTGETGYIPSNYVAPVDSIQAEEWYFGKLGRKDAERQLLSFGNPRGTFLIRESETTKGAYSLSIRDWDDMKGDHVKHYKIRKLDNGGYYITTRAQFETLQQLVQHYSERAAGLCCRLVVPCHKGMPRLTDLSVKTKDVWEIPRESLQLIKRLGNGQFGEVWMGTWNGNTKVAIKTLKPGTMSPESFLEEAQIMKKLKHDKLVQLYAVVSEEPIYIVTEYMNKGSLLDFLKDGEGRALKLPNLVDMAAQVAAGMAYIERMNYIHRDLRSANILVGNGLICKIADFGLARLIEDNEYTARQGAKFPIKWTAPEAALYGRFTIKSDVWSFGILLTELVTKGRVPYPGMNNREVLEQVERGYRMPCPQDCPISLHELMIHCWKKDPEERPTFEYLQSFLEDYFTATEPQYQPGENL

Hck = Hck (UniProt P08631); test: as above
Chain of Hck (P08631 whole entry, looked up): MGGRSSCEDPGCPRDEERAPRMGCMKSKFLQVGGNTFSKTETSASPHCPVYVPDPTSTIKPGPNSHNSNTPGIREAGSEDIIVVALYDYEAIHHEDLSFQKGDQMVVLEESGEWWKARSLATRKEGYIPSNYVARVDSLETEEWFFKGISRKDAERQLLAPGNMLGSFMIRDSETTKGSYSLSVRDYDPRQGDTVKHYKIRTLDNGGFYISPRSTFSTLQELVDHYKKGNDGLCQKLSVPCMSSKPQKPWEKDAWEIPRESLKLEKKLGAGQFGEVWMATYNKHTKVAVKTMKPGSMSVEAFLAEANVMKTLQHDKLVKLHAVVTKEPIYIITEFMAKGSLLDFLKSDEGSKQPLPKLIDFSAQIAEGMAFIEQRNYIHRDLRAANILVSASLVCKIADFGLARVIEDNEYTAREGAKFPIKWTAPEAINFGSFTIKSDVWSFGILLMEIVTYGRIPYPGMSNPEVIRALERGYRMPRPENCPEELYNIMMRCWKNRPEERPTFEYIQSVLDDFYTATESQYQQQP

Jak2 = Jak2 (UniProt O60674); test: as above
MERTK = MERTK (UniProt Q12866); test: as above
c-Abl (mouse) = test: as above
c-Src = test: as above
Grb2 SH2 = Grb2 SH2 (UniProt P62993); test: SH2 binding enrichment of the phosphorylated peptide, bacterial display (enrichment ratio); higher = better substrate or ligand; peptides without Tyr show the background
Chain of Grb2 SH2 (P62993 whole entry, looked up): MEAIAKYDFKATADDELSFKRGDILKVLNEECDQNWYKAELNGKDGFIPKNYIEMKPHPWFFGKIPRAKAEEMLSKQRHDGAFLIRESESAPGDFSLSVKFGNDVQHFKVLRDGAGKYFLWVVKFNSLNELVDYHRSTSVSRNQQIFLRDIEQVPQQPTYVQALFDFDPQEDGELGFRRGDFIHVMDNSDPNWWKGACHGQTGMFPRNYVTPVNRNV

SHP2-C SH2 = test: as above
c-Src SH2 = test: as above
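Wherever SH2 binding enrichment of the phosphorylated peptide, bacterial display is given: peptide library displayed on the E. coli surface as eCPX fusions, selected cells deep-sequenced, score is each peptide's frequency after selection divided by its frequency in the input.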
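Wherever phosphorylation enrichment, bacterial display is given: 11-residue human phosphosite peptides and single-mutation variants displayed on the E. coli surface, counted by deep sequencing, each peptide's frequency after selection divided by its frequency in the unselected input library; frequency after pTyr selection over input frequency; kinase dosed for 20-30% of maximal phosphorylation in three min.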

Chain of EPHB1 (P54762 whole entry, looked up): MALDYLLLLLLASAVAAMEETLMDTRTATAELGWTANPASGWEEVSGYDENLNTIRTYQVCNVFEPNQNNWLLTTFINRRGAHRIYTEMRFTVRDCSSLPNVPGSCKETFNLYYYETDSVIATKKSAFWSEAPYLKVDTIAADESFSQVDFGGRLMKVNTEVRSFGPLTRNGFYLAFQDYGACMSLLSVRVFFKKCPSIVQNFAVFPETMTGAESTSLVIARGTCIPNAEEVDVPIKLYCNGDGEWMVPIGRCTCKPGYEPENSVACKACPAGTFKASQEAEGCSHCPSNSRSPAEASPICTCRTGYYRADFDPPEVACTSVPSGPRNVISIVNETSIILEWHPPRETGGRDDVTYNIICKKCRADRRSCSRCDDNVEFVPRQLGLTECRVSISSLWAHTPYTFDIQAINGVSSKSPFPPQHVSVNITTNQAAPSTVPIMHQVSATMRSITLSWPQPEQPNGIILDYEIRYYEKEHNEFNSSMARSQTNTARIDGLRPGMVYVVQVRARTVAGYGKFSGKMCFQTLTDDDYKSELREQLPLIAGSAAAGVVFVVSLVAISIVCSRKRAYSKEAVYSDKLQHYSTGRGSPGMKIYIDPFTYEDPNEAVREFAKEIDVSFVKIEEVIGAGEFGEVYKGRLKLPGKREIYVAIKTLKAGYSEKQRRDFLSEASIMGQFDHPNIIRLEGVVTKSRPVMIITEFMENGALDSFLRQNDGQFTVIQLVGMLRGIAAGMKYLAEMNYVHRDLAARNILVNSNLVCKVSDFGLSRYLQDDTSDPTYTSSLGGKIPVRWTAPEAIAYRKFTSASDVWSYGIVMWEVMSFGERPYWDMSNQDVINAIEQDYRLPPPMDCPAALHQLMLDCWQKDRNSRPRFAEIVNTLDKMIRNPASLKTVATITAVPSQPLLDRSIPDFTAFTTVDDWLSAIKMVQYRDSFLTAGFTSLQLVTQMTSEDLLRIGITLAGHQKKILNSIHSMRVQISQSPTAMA

Sequence	phosphorylation enrichment (AncSZ)	phosphorylation enrichment (EPHB1)	phosphorylation enrichment (EPHB2)	phosphorylation enrichment (FGFR1)	phosphorylation enrichment (FGFR3)	phosphorylation enrichment (Fer (mouse))	phosphorylation enrichment (Fes)	phosphorylation enrichment (Fyn)	phosphorylation enrichment (Hck)	phosphorylation enrichment (Jak2)	phosphorylation enrichment (MERTK)	phosphorylation enrichment (c-Abl (mouse))	phosphorylation enrichment (c-Src)	SH2 binding enrichment (Grb2 SH2)	SH2 binding enrichment (SHP2-C SH2)	SH2 binding enrichment (c-Src SH2)
ADYPDYKYRPR [SOX11_Y116]	0.673	0.48	0.489	0.594	0.613	0.342	0.718	0.389	0.505	0.601	0.378	0.461	0.409	0.973	1.18	0.587
HSHTRYERNIE [F2_Y434_R431H]	0.766	0.67	0.387	0.62	0.555	0.655	0.85	0.446	0.477	0.47	0.5	0.694	0.795	1.2	1.12	0.843
DTYDPYLDVAL [USP36_Y268]	1.55	0.805	0.776	0.742	0.853	0.661	1.32	1.19	0.846	1.1	0.412	0.859	1.43	0.751	0.559	0.509
LISVSYDDWDY [GRIN2A_Y281]	2.2	0.813	0.827	0.901	1.05	4.25	1.92	0.773	0.666	1.35	0.691	1.01	0.652	1.07	1.39	1.9
NVADHYRVFKP [ATP6V0D2_Y271_G272R_YF]	0.708	0.404	0.361	0.459	0.608	0.404	0.616	0.391	0.418	0.582	0.644	0.686	0.471	0.842	0.624	0.397
ILLAGYLVMVI [SLC28A3_Y113]	1.35	0.681	0.652	0.58	0.783	0.613	1.38	0.572	0.525	1.06	0.498	0.748	0.442	0.729	0.781	0.502
CEHRGYLYLAI [TEK_Y897]	1.04	0.664	0.53	0.726	0.72	0.551	1.51	0.494	0.614	0.973	0.708	0.84	0.527	1.21	0.761	0.741
AALVQYYMEHH [PTPN11_Y80_E76A]	0.937	1.9	1.17	0.722	0.767	0.415	0.912	0.529	0.813	0.745	0.68	0.49	0.541	0.991	1.16	0.742
PYIDSYEKDVA [PGM1_Y521_L516P]	1.66	0.907	0.857	0.907	1.08	0.852	1.48	0.684	0.725	1.61	0.763	0.961	0.703	0.802	0.724	0.647
VLVSQYEKLNA [AMZ2_Y26]	0.619	0.524	0.341	0.362	0.548	0.417	0.732	0.438	0.467	0.638	0.434	0.578	0.389	0.915	0.632	2.71
SFNNKYGMVAQ [APOB_Y276_K273N_YF]	0.542	0.332	0.504	0.4	0.469	0.399	0.51	0.395	0.422	0.509	0.431	0.462	0.384	0.852	0.68	0.435
ADRSCYDLSCH [GARS1_Y467]	0.92	0.486	0.528	0.433	0.586	0.431	0.91	0.604	0.561	0.798	0.457	0.631	0.472	0.79	0.968	0.985
QTENKYVSVSG [EIF2AK3_Y565_D566V]	0.61	0.808	0.683	0.527	0.581	0.626	1.51	0.627	0.85	0.754	0.548	0.938	0.693	0.707	2.59	0.828
RKKEEYKMALF [F8_Y1990_YF]	0.759	0.734	0.738	0.4	0.607	0.494	0.708	0.31	0.465	0.691	0.391	0.72	0.555	1.09	1.21	0.846
SQSKGYRPKLF [SIPA1L3_Y1376_G1371S_YF]	0.503	0.415	0.32	0.433	0.42	0.368	0.549	0.417	0.41	0.5	0.458	0.478	0.435	0.852	0.498	0.528
IVWDSYTTNKV [GNB3_Y85]	1	0.675	0.559	0.501	0.635	0.519	1.2	0.546	0.528	0.895	0.307	0.718	0.359	0.966	0.887	0.585
EVVGKYSVHNA [MLH1_Y183_R182K]	0.612	0.363	0.363	0.352	0.449	0.426	0.697	0.428	0.388	0.569	0.374	0.527	0.438	0.954	0.842	0.455

Sequence	phosphorylation enrichment (AncSZ)	phosphorylation enrichment (EPHB1)	phosphorylation enrichment (EPHB2)	phosphorylation enrichment (FGFR1)	phosphorylation enrichment (FGFR3)	phosphorylation enrichment (Fer (mouse))	phosphorylation enrichment (Fes)	phosphorylation enrichment (Fyn)	phosphorylation enrichment (Hck)	phosphorylation enrichment (Jak2)	phosphorylation enrichment (MERTK)	phosphorylation enrichment (c-Abl (mouse))	phosphorylation enrichment (c-Src)	SH2 binding enrichment (Grb2 SH2)	SH2 binding enrichment (SHP2-C SH2)	SH2 binding enrichment (c-Src SH2)
HEHKGYNANFC [TGFB2_Y341_P338H]	0.603	0.505	0.727	0.7	0.951	0.698	0.928	0.659	0.832	0.642	0.612	0.464	0.542	0.775	0.647	0.655
QFKDKYLAKHN [CASK_Y712_YF]	0.519	0.53	0.268	0.383	0.298	0.433	0.467	0.266	0.384	0.788	0.403	0.35	0.34	0.83	1.3	0.914
SGPRRYTMAAL [TTR_Y125_I127M]	0.677	0.396	0.466	0.423	0.459	0.383	0.611	0.416	0.488	0.601	0.44	0.555	0.533	0.787	0.505	0.487
GCCSWYRGWAP [TIMP3_Y195_Y191C]	0.944	0.563	0.565	1.38	0.966	3.84	0.967	0.651	0.784	0.705	0.459	0.59	3.1	1.56	1.14	1.24
EGDGVYTLNDE [HP_Y125_N129D]	1.18	0.643	0.727	0.453	0.838	0.555	1.23	4.51	1.81	1.21	0.482	0.8	3.79	0.872	0.445	0.532
RYVTRSIYNRE [HLA-DQB1_Y62_Y62S]	0.772	0.226	0.389	0.622	0.327	0.495	1.1	0.553	0.682	1.1	0.601	0.735	0.705	0.802	0.94	0.543
AAILGYCRGEA [XPC_Y669]	0.789	0.567	0.45	0.541	0.556	0.419	1.02	0.438	0.467	0.786	0.413	0.718	0.372	0.821	0.683	0.57
LEGEEYRMSGE [KRT3_Y511]	1.69	0.891	0.598	0.574	0.929	0.937	1.41	0.797	0.531	1.58	0.462	0.956	0.525	0.908	0.562	0.461
PVDGEYFTLQI [TP53_Y327_L323V]	4.07	1.16	1.36	11.4	9.07	1.31	1.86	4.09	2.38	3.14	0.623	1.38	3.58	0.785	0.744	0.512
IRKKFYRAILE [CHD7_Y1218_Q1214R_YF]	0.569	0.386	0.58	0.426	0.444	0.42	0.62	0.57	0.455	0.797	0.618	0.568	0.658	0.619	0.458	0.433
DDLEVYLKHPL [SACS_Y3477_L3481P]	1.53	0.871	0.625	0.643	0.735	0.558	1.31	1.26	1.73	1.32	0.562	0.842	1.85	0.604	0.592	0.341
SPFAVYRFFTF [RPGRIP1_Y826_YF]	1.22	0.501	0.519	0.637	0.798	0.496	1.33	0.68	0.867	1.08	0.45	0.961	0.91	0.689	0.729	0.462
SIVEDYRPPFY [ACVRL1_Y421_G416S]	1.22	0.785	0.551	0.552	0.743	0.804	1.25	0.483	0.427	1.1	0.496	0.995	0.472	0.599	0.622	0.462
FSGKAYADEER [CRIM1_Y826]	0.895	0.565	0.571	0.694	0.566	0.486	1.03	0.463	0.499	0.837	0.395	0.786	0.496	1	0.748	0.515
PADRAYSWFQH [NDST1_Y711_YF]	1.14	0.543	0.67	1.84	1.14	17.8	1.43	0.833	0.466	1.03	4.22	0.645	0.868	0.949	0.572	0.976
LRWREYQRQDY [PRKRIP1_Y90_R87W]	1.12	0.439	0.761	0.626	0.585	0.376	0.957	0.574	0.453	0.997	0.409	0.737	0.486	1.46	1.32	1.26
